{"source": "paper PMC10192925", "about": "“Rapid, scalable assay of amylin-β amyloid co-aggregation in brain tissue and blood” (The Journal of Biological Chemistry, 2023)", "target": "T1, Aβ40 synthetic peptide (human, UniProt P05067 672-711)", "T1 construct": "β amyloid, the isoform ending at the 40th amino acid (Aβ40), cut product of the amyloid precursor protein; numbers count on: the Aβ peptide; Pre-incubated at 16.2 uM at 37 C for 2 h before mixing 1:1 (volume) with amylin and incubating 24 h at 37 C; also called β amyloid; human Aβ40; source: synthetic peptide; bought: Anaspec (AS-24235)", "test": "ELISA; amylin-Aβ sandwich ELISA on solutions of peptides co-incubated at 37 C for 24 h in PBS with 0.05% sodium azide (30 uM amylin and 16.2 uM Aβ mixed 1:1); capture by the polyclonal anti-amylin P2 antibody, detection by an HRP-conjugated anti-Aβ antibody", "details": "both partners purified", "data": [{"binder": "KCNTATCATQRLANFLVHSSNNFGAILSSTNVGSNTY (peptide, UniProt P10997 34-70, looked up, Amylin (islet amyloid polypeptide), human, synthetic peptide; Pre-incubated at 30 uM in PBS with 0.05% sodium azide at 37 C for 5 h before mixing with Aβ40; also called islet amyloid polypeptide; source: synthetic peptide; bought: Anaspec (AS-60254-1))", "note": "[human amylin synthetic peptide]", "values": [{"measurement": "binding result", "value": "binds"}]}]}
